Laboratory results as given in PMC6549176, “SAGA DUBm-mediated surveillance regulates prompt export of stress-inducible transcripts for proteostasis” (Nature Communications, 2019).

Target: T1, recombinant Sgf73p (MBP-Sgf73p) (S. cerevisiae, UniProt P53165 1-657)
T1 construct: Sgf73p of the SAGA DUBm, S. cerevisiae; source: recombinant
T1 sequence (looked up): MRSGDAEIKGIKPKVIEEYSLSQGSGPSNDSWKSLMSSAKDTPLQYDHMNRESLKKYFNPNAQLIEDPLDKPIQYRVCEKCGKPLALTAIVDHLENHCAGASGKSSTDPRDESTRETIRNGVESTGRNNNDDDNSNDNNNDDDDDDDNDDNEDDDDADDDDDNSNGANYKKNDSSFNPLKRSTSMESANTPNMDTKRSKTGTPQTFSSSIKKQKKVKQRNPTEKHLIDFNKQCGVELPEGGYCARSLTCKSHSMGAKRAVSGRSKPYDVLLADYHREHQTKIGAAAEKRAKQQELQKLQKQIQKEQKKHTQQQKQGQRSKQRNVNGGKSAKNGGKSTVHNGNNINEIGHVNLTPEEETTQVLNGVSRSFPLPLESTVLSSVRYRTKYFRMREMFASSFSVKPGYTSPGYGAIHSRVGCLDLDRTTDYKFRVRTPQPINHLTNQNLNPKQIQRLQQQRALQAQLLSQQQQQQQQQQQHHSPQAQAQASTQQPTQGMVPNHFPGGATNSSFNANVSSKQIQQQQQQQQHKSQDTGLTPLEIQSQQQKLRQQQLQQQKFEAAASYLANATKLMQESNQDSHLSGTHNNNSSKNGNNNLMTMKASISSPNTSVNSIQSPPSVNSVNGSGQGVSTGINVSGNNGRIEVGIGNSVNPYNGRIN
Experiment: pull-down; GST-tagged Yra1p or its subfragments as bait (1 µg) on beads, 200 ng target protein; 50 mM HEPES-KOH pH 7.5, 150 mM NaCl, 10% glycerol, 0.1% NP40, 0.5 mM DTT, 1 mM EDTA; 4 °C, 2 h; Western blotting
Details: both partners purified

B1: GST-tagged Yra1p (natural protein, S. cerevisiae, UniProt Q12159 1-226, looked up)
chain: MSANLDKSLDEIIGSNKAGSNRARVGGTRGNGPRRVGKQVGSQRRSLPNRRGPIRKNTRAPPNAVARVAKLLDTTREVKVNVEGLPRDIKQDAVREFFASQVGGVQRVLLSYNERGQSTGMANITFKNGELARRAVERFNGSPIDGGRSRLRLNLIVDPNQRPVKSLADRIKAMPQKGGNAPRPVKRGPNRKAAMAKSQNKPKREKPAKKSLEDLDKEMADYFEKK
notes: Yra1p, essential mRNA export factor, S. cerevisiae; also called GST-Yra1p
B1: binds.
